{
  "source": "paper PMC3411929",
  "about": "(Journal of structural biology, 2012)",
  "biological_target": "the molecule itself",
  "assay": "SEC",
  "data": [
    {"protein": "human spastin amino acids 228-616 containing the E442Q mutation (domain or fragment, UniProt Q9UBP0 228-616, looked up) ESGAVPKRKDPLTHTSNSLPRSKTVMKTGSAGLSGHHRAPSYSGLSMVSGVKQGSGPAPTTHKGTPKTNRTNKPSTPTTATRKKKDLKNFRNVDSNLANLIMNEIVDNGTAVKFDDIAGQDLAKQALQEIVILPSLRPELFTGLRAPARGLLLFGPPGNGKTMLAKAVAAESNATFFNISAASLTSKYVGEGEKLVRALFAVARELQPSIIFIDQVDSLLCERREGEHDASRRLKTEFLIEFDGVQSAGDDRVLVMGATNRPQELDEAVLRRFIKRVYVSLPNEETRLLLLKNLLCKQGSPLTQKELAQLARMTDGYSGSDLTALAKDAALGPIRELKPEQVKNMSASEMRNIRLSDFTESLKKIKRSVSPQTLEAYIRWNKDFGDTTV", "values": [
      {"measurement": "stoichiometry N", "value": 6}
    ]}
  ]
}
